{
  "source": "paper PMC8873477",
  "about": "“Structural basis of adenylyl cyclase 9 activation” (Nature Communications, 2022)",
  "binders": {"B1": {"name": "bovine Gαs (G protein αs subunit), GTPγS-activated (natural protein, UniProt P04896-1 1-394, looked up)", "chain": "MGCLGNSKTEDQRNEEKAQREANKKIEKQLQKDKQVYRATHRLLLLGAGESGKSTIVKQMRILHVNGFNGEGGEEDPQAARSNSDGEKATKVQDIKNNLKEAIETIVAAMSNLVPPVELANPENQFRVDYILSVMNVPDFDFPPEFYEHAKALWEDEGVRACYERSNEYQLIDCAQYFLDKIDVIKQDDYVPSDQDLLRCRVLTSGIFETKFQVDKVNFHMFDVGGQRDERRKWIQCFNDVTAIIFVVASSSYNMVIREDNQTNRLQEALNLFKSIWNNRWLRTISVILFLNKQDLLAEKVLAGKSKIEDYFPEFARYTTPEDATPEPGEDPRVTRAKYFIRDEFLRISTASGDGRHYCYPHFTCAVDTENIRRVFNDCRDIIQRMHLRQYELL", "notes": "bovine Gαs, Uniprot ID P04896-1; also called G protein α subunit; source: High Five insect cells, baculovirus, purified (Ni-NTA, Superdex 200 SEC)"}},
  "target": "T1, C-terminally truncated bovine AC9_(1250) (residues 1-1250 of AC9) (bovine, UniProt E1BM79 1-1250)",
  "T1 construct": "the purification is said to be identical to that of AC9; source: HEK293F cells, transient transfection (PEI), purified as AC9",
  "T1 sequence (looked up)": "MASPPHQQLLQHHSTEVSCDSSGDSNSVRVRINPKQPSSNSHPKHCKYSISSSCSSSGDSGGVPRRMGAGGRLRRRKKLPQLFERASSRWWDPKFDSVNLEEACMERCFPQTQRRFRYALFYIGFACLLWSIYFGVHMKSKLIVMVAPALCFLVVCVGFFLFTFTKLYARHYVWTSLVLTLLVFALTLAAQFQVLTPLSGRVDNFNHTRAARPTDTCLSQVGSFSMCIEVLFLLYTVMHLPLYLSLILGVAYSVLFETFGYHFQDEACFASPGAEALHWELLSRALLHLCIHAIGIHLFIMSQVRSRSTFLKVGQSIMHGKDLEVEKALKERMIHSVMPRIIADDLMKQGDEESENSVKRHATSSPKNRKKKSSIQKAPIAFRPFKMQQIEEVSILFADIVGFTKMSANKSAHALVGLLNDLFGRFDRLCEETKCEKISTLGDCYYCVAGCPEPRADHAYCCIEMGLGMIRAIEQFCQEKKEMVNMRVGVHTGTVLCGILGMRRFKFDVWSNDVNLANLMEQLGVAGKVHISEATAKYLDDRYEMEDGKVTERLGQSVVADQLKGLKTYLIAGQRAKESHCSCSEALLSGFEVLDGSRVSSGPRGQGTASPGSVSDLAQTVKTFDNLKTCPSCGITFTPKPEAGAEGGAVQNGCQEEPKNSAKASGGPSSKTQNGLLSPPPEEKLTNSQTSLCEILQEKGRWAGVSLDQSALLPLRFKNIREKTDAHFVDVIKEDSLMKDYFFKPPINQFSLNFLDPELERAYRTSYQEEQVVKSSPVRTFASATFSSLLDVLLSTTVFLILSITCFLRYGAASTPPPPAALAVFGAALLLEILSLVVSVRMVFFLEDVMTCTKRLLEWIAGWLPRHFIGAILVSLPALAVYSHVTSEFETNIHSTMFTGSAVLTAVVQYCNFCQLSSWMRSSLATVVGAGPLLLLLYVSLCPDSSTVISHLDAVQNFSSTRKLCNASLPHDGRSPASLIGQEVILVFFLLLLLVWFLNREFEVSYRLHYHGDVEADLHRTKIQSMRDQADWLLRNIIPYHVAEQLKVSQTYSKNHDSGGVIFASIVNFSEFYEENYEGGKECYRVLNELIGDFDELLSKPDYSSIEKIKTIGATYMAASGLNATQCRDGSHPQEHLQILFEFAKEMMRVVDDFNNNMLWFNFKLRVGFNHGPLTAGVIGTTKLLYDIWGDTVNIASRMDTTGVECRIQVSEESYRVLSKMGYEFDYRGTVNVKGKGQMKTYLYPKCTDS",
  "experiment": "cryo-EM structure; AC9_(1250) at 5 mg/ml with 5 mM MnCl2, 0.5 mM MANT-GTP and a 2-fold molar excess of GTPγS-activated Gαs, 30 min at 4 °C; no forskolin; soluble part refined to 3.8 Å",
  "conditions": "both partners purified",
  "data": [
    {"binder": "B1", "values": [
      {"measurement": "binding result", "result": "binds"}
    ]}
  ]
}
